Test results as given in the DeepSol protein solubility set.

Test: soluble on expression in E. coli; label from the status in PepcDB or PDB records

Sequence	soluble on expression in E. coli
MGSDKIHHHHHHMKEIALLAIARYGDLIQTTPLVRALRRAHPGARITAIVEDRFCGILPLLPGIDRTIVLNKQDIAWDIATGDSPLVPYLKMDEFVRKLEEGSYDLLVNITCSRLSAFFASCVTSRRRTGISADEAGERNIVTLWGQYIFSWFNDNIRKYNAINLVDIFTRLGEVPPDGRRVELVATEKGERFADDFLDRHGLRGQRLVGLQLGASEATRIWPAEHFARISDRLQRELGVRTILFGAPVEKHLAGQAMAAMEMPAVDAVGETGIEELYSLVGRCAALVSNDTGTMHFAAAAGVPAVMLCIGPAFFRCTGPYGEGHLALQPDLPCSPCPYSLVCADPVCRDTISPEAVFSACRMILAGADGLGNADFSGVRVYRSSFAPDGYLTWDGLFNVDAWEEEQVKRRESAWKGCFDGSTKGCGAPGDETLRAFWELTGRGIEATEAIIRAARKKPLPVDEIRRLGEKESAIEAEVKLMGYRHEPLAPVTEFLTLMRENITGEELGRIARETRSLYETGRCLAALL	not soluble
MGSDKIHHHHHHMNHLLKQAKRVASECECGHEHQWIEMDELQLGRNAINYLPEYLHEKGLLHVTIVADANTYAVAGQLVAQLLKGRGIDVENCILKEQGALTLLADEHGLGQLVIGAAKETDVFLAVGAGTIHDLTRIASYKFGKPFIAIPTAPSVDGFTSMGAPVIRDGVKITFQTQAPIALFADLDFLTQAPRSMVAAGFGDMLGKSTSLVDWQVSHMLNDEPFCPAVFHMTKSALTMCMEHADEIAACNEQGIRLLTEALIMSGLAMLIFGHSHPASGAEHHLSHYWEMAFLRSGGTQPLHGAKVGYATMLISALYKNEARKKIETFQGEGSPLVNSIHKHRERLLMLIDTIPESSDIQRLLESVGGAVKSADLALADSLEDEALEKAHKLRERCTLLYCLNEHLKTS	not soluble
MWIVFDVDGVLIDTSESYDMATKLTVEYFLSHLGIKKEVSLEIIRDMRKKGVFSDDFELSEALILMYLSGEDLPKGEGVEYLRQKLGIVLDRKDIERVFNTFYLGEIYPNSIFKFEGLWRKEKRIVDIELLKKAKETYKLGIVTGRDSLEMKLAEEIIRFKFDKVVTRDMFEKPDPRALYEVTQGEEAIYIGDSKVDEELVERYRRTFKGNVTYLMVGRDVNDVNEALKKILFQSYIRLEHHHHHH	soluble
MNKELQPKVVFLMGPTASGKTALALELAEKHNCEIISVDSALIYRGMDIGSAKPSAEELARGPHRLIDIRDPSESYSAADFRADALSEIEQIISMGKTPLLVGGTMMYFKALLEGLSPLPSADEVIRADIQAEADANGWEALHDQLREIDPVSAERIHPNDPQRLSRALEVYRISGKSLTELTMTKSAPLPYNVVQFAIAPRERKVLHELIGQRFRIMLEQGFIDEVAQLKARDDLHLDLPSMRCVGYRQCWQYLDGEFDHDTMVEKAIAATRQLAKRQLTWLRSWPELNWLESGAEGNLVTLMRHCRLEHHHHHH	soluble
MSEIEELVCIEASVTRKSTSNTVEIRESRRNKVTLGSSDSPAFPTPHLFLKNIVSFDEQSMYNLLYPRLQDPNLCSILSFKIAFEAKRVPGPLYISYDVTLTPQIFEEPDMETCGLCLLEEQHLFDMPNCAHVFHGDCIDKWLSTSNNCPLCGVEIMDDDE	soluble
MGLKVLLYDPDGEIAHFLEDIFEVTGHTLYPAGSEEEVFEYLKNEPEFFFLPFSLKEAWVNSLKERATIPIFFLFSEEEEERAKGLGIPEVNLVRVPFNPLELFERLGLLHKMKPKDFQEIGLFNTLVKSHLEEKGVKVKIKGSGGECLVNTYPVSLSCRLEELKELLKKRLRTGRR	not soluble
MAHHHHHHMWFGQLVIGPPGSGKSTYVAGVEHILRQINRKLVLINLDPFVENDVYKADVNISDLVDIKKVFCDLGLGPNGTLIYCMEYLLINFDWLEEKLKEHKDHYLLIDTPGQVELYTHNDALRKIVEKMTKMNCRLTSVHIVDSTLCSDNYKYVSALLLSLCSQIHLELPHVNVFSKIDLLKYFRDDLNFPLSYYVEAQNLEQLMLYARYQNESSSGSEGVNMGDDSPSGSLNDRSSCAQSAIKQAIRNDINSGRIKNVRKNYKKFSNKFLKLNEYICETVEDYNMINFALLDIQDKYSVLKLLKIIDGANGFRFSSIYSEYSLFDTYAEAIEYDCDDIQEKIVDVSDEEKEASLSGHPPHG	not soluble
ELQVLDTWQGDVVRDTKTLSGGESFLVSLALALALSDLVSHKTSIDSLFLDEGFGTLDSETLDMALDALDNLNASGKMIGVISHIEAMKERIPVQIKVTKRSGLGVSELEKQYKKVS	not soluble
MNLRPVIVGGGSAGMAAAIELARRGVPCVLFDEASRPGGVVYRGPLRAGVDPAYLGARYTRMLEKLRRDFSACAGHIDLRLNSRVVGGDGQRLMVLDEAERLHEVEYSHLLLATGCHERSVPFPGWTLPGVMLLGGLQLQIKSGVVKPLGDTLIAGSGPLLPLVACQLHAAGVRVAGVYEACAFGRMARESLALLNKPQLFLDGLSMLGYLKLNGIPLHYGWGVVEASGDGELTEVTVAPYDEEWRPDLENARPVKASTLAVGYGFIPRTQLSQQLGLEHGFSDDGYLRAECNVWQQSSQPHIHLAGDMAGIRGGEAAMIGGRIAALSILLQREAIAPAEAIERRESHLARLEAIKRFRAGVERYTQRGARQVELARADTVICRCEQVTRGDIERALEQGVQDIAGLKMRTRAGMGDCQGRMCIGYCSDRLRRATGRHDVGWLRPRFPIDPIPFSAFQNLGTEALEHHHHHH	not soluble
MGSDKIHHHHHHMTFDANDVVRRLGARLKMRHLMLLLQIQQHGSLTRVAEHMASSQPAVTNALSELESMFGTPLFERTSRGMRPTALGSVVLERARAMLKDLDHLAREMEAVAAGHAAHLHIGVIPFISGQMLSAALKRLQSRMERRLTVTIHEGTSDQLLLQLKDHSVDLVIGRASSAIDLGQVSFEVLYQQQPRMIASRRLAAKLARTKLDWQKLHALDWILGAPHTPMREQVTDLFLSAGIAPPVPIVESYSSKLIGEMIASSDDAVSIVPADIAEEMVRIAGVAIVPYSLVWTLPPIALFTRAGESHAPTRDLLVQALREICRETYVEVPR	not soluble
PETLVKVKDAEDQLCRTSHRPCRVGYIELDLNSGKILESFRPEERFPMMSTFKVLLCGAVLSRIDAGQEQLGRRIHYSQNDLVKYSPVTEKHLTDGMTVRELCSAAITMSDNTAANLLLTTIGGPKELTAFLHNMGDHVTRLDRWEPELNEAIPNDERDTTMPVAMATTLRKLLTGELLTLASRQQLIDWMEADKVAGPLLRSALPAGWFIADKSGAGRRGSRGIIAALGPDGKPSRIVVIYTTGSRKKTDERNRQIAEIGASLIKHWGLEQKLISEEDLNSAVDHHHHHH	soluble
MTGKLPKACVIGAGCSGFTTIKRLKDYGIPYDCFEMSDEVGGNWYYKNPNGLSACYESLHIDTSKWRLAFEDFPVPKDWPDFPHHAQLFQYFKDYVDHFGLRPTITFNTKVESAKRTADGLWAVTLSGGETQFYDVLFVCNGHHWDPRVPEYPGEFDGPAFHAHAYCDPFDPVDMRGKNVVVVGMGNSAMDIASELSQRPIAKNLWVSARRGVWVFPKYLNGKPADKTALPAWMPRKLGVALSRSVLKKTIGRMEDYGLPKPDHEPLEAHPSVSGEFLTRAGCGDIKFKPAIKALEGKRVRFTDDSVEDVDAIVFATGYKISFPFFDDPALLPDADHRLPLFKRMMKPEVPNLFYMGLAQPLPTLVNFAEQQAKLAAAYLAGQYALPPPAEMARITAKDEHRHTGHFYDSARHTIQVDFNVYCADLKKEIAKGEARARNAGGKLPVAARAEGQALAAELEHHHHHH	soluble
MLKLYVLVYKGEPLDYHEYRHTALYLKLPDNQSFIMHILGTQGMFEYAQIKNKDPSVVGSLAKVVPVADISEVIGSGPIQSTVAKTLVQNGPLDLDWNCQHWVGDALSKLAERKYITVAERAEAIDRMMDACLEAMDD	not soluble
